Values of other authors, collected in paper PMC9694239.

Biological target: CNG channel beta subunit CaM1 peptide CaM1 (Homo sapiens) (UniProt Q14028)
Sequence (Q14028 whole entry, looked up, tested part not stated): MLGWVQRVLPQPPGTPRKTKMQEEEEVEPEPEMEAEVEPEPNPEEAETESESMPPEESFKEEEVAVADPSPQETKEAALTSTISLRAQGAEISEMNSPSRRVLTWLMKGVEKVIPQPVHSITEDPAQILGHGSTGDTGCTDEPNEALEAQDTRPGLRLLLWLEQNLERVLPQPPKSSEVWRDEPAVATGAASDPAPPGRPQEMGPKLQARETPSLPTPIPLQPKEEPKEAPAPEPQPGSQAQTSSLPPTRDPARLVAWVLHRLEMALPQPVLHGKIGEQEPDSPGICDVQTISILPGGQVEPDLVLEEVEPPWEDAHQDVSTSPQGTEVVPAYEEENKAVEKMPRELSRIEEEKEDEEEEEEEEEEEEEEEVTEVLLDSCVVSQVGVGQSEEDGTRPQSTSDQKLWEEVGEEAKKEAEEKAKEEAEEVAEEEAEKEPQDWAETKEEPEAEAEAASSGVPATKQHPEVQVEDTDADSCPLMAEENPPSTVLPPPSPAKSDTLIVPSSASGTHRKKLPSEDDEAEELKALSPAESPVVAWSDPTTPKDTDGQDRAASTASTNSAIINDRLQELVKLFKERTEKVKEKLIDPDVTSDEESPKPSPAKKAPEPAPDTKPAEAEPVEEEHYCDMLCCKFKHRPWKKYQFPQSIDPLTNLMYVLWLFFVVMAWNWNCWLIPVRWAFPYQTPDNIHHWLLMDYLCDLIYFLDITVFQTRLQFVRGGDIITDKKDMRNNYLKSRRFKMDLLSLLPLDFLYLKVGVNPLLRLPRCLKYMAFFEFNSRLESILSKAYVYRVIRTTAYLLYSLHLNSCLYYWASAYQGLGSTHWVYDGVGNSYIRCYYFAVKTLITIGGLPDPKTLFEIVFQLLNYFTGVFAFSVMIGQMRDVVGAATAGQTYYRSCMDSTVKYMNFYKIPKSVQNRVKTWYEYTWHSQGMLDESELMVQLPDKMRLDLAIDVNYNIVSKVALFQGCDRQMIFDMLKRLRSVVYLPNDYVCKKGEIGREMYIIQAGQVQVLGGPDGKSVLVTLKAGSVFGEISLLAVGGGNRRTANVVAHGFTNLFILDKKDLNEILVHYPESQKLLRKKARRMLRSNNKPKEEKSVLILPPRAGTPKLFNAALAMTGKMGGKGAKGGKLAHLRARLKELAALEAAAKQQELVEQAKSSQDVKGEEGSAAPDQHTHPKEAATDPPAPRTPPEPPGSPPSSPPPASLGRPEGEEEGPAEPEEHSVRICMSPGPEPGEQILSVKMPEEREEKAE

For Calmodulin N-lobe (from UniProt P0DP23), the Kd is given as 5 µM.
